The assay concerns the target CD137 on Jurkat reporter cells (Promega) (UniProt Q07011). Description: cell-based or functional assay.

CD137 on Jurkat reporter cells (Promega), sequence (Q07011 24-255 limits assumed): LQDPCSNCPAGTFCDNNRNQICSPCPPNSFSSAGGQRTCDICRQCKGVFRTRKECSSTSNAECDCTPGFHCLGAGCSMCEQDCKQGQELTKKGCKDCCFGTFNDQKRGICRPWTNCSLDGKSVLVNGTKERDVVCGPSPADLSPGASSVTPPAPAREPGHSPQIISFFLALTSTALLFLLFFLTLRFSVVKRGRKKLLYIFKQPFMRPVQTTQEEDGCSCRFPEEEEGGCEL

“CD137 ligand (from UniProt P41273 71-254)”: the Average EC50 turned out to be 14.2 nM and the Average fold induction came out at 4 fold.
